Reference: the supplement of paper PMC9732359
± gives the uncertainty stated by the source.

Experiment: protein stability index of a GFP-peptide fusion (yeast GPS) (PSI 1-4); higher = more stable; sorted into four equal gates, so the index is relative within each strain
Outline: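 Tiled 17-residue yeast protein peptides were fused downstream of GFP in a plasmid that also expresses Cherry, and the pooled library was carried in yeast. Mid-log cultures in leucine-free medium were sorted into four equal gates by GFP/Cherry fluorescence ratio, and plasmids from each gate were PCR-amplified and Illumina-sequenced, with reads assigned to strains by barcodes. The protein stability index for each peptide was each gate's read frequency times its gate number, summed.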

VDKELLEPGCSVLLHHK [RPT2]
protein stability index (doa10∆): 2.95 ± 0.16 | protein stability index (pdr5∆): 2.8 ± 0.095 | protein stability index (san1∆): 2.51 ± 0.17 | protein stability index (ubr1∆): 2.66 ± 0.12

VDKIFEKVNNNATLTPN [SWI1]
protein stability index (doa10∆): 3.09 ± 0.079 | protein stability index (pdr5∆): 3.08 ± 0.073 | protein stability index (san1∆): 3.22 ± 0.069 | protein stability index (ubr1∆): 3.15 ± 0.051

VDLTSSNFADSADYEIL [YDL116W/NUP84]
protein stability index (doa10∆): 2.84 ± 0.087 | protein stability index (pdr5∆): 3.12 ± 0.098 | protein stability index (san1∆): 3.31 ± 0.093 | protein stability index (ubr1∆): 3.29 ± 0.09

VDQGQIYRDRSTFTKHL [ITC1]
protein stability index (doa10∆): 3.2 ± 0.06 | protein stability index (pdr5∆): 3.33 ± 0.067 | protein stability index (san1∆): 3.15 ± 0.042 | protein stability index (ubr1∆): 3.15 ± 0.037

VDSRTKIRMLTQAAEFL [IRR1]
protein stability index (doa10∆): 2.47 ± 0.11 | protein stability index (pdr5∆): 2.96 ± 0.084 | protein stability index (san1∆): 1.78 ± 0.11 | protein stability index (ubr1∆): 2.81 ± 0.079

VDVQAPTDDKTLKPTFS [YOR098C/NUP1]
protein stability index (doa10∆): 3.05 ± 0.15 | protein stability index (pdr5∆): 3.23 ± 0.18 | protein stability index (san1∆): 3.16 ± 0.19 | protein stability index (ubr1∆): 3.27 ± 0.076

VEDALDKDSTKEVASLP [FAS2]
protein stability index (doa10∆): 3.15 ± 0.13 | protein stability index (san1∆): 3.12 ± 0.12

VEDTLHVNKRKRVSGTS [YOR098C/NUP1]
protein stability index (doa10∆): 1.42 ± 0.078 | protein stability index (pdr5∆): 1.92 ± 0.13 | protein stability index (san1∆): 1.73 ± 0.15 | protein stability index (ubr1∆): 1.52 ± 0.077

VEFNRKVVIPNLLCYYN [RPN3]
protein stability index (pdr5∆): 1.67 ± 0.22

VEIEKRILKLGTQLATL [YGR119C/NUP57]
protein stability index (doa10∆): 2.11 ± 0.23 | protein stability index (pdr5∆): 1.22 ± 0.14 | protein stability index (san1∆): 1.94 ± 0.18 | protein stability index (ubr1∆): 1.4 ± 0.066

VEILFEAGASAELDDCR [RPO21]
protein stability index (doa10∆): 2.94 ± 0.14 | protein stability index (pdr5∆): 3.44 ± 0.15 | protein stability index (san1∆): 2.93 ± 0.074 | protein stability index (ubr1∆): 3.49 ± 0.16

VEKRIGKIVSQRGKWNL [RGR1]
protein stability index (doa10∆): 2.88 ± 0.065 | protein stability index (pdr5∆): 2.96 ± 0.049 | protein stability index (san1∆): 3.16 ± 0.06 | protein stability index (ubr1∆): 2.71 ± 0.036

VENIERVVMMKYDRKVP [RPO21]
protein stability index (doa10∆): 2.29 ± 0.17 | protein stability index (pdr5∆): 2.67 ± 0.2 | protein stability index (san1∆): 2.13 ± 0.19 | protein stability index (ubr1∆): 2.36 ± 0.085

VERGRVGACTDEEMTIS [RRP43]
protein stability index (pdr5∆): 3.08 ± 0.23 | protein stability index (ubr1∆): 3.23 ± 0.2

VESQFSAGRLYACISSR [RPS8A]
protein stability index (doa10∆): 2.08 ± 0.11 | protein stability index (pdr5∆): 2.65 ± 0.097 | protein stability index (san1∆): 1.99 ± 0.14 | protein stability index (ubr1∆): 2.55 ± 0.14

VEWINPSRRERRREQTT [ISW2]
protein stability index (ubr1∆): 3.39 ± 0.15

VEYLDVNEENDSYIALY [RET1]
protein stability index (doa10∆): 2.97 ± 0.14 | protein stability index (pdr5∆): 3.08 ± 0.19 | protein stability index (san1∆): 3.2 ± 0.08 | protein stability index (ubr1∆): 3.2 ± 0.12

VEYVDPTVNRVPNYEVS [RPN7]
protein stability index (doa10∆): 3.37 ± 0.26 | protein stability index (pdr5∆): 3.2 ± 0.16 | protein stability index (san1∆): 2.92 ± 0.25 | protein stability index (ubr1∆): 3.8 ± 0.15

VFFDDDPLYDITKVPAL [REC8]
protein stability index (doa10∆): 2.47 ± 0.063 | protein stability index (pdr5∆): 2.92 ± 0.082 | protein stability index (san1∆): 2.7 ± 0.065 | protein stability index (ubr1∆): 2.88 ± 0.055

VFQLPTRLPAFERPAVK [RPC53]
protein stability index (doa10∆): 3.01 ± 0.093 | protein stability index (pdr5∆): 2.89 ± 0.072 | protein stability index (san1∆): 2.81 ± 0.1 | protein stability index (ubr1∆): 3.01 ± 0.079

VFVNTGLQNVRKVRTKK [SWP82]
protein stability index (doa10∆): 2.51 ± 0.16 | protein stability index (pdr5∆): 2.35 ± 0.096 | protein stability index (san1∆): 2.78 ± 0.17 | protein stability index (ubr1∆): 3.11 ± 0.15

VGCIFAELIGLQPIFKG [SSN3]
protein stability index (doa10∆): 3.02 ± 0.085 | protein stability index (pdr5∆): 2.42 ± 0.097 | protein stability index (san1∆): 3.06 ± 0.04 | protein stability index (ubr1∆): 2.5 ± 0.094

VGEEETSQKMKKMVYVL [SRP54]
protein stability index (doa10∆): 3.31 ± 0.11 | protein stability index (pdr5∆): 3.38 ± 0.11 | protein stability index (san1∆): 3.31 ± 0.078 | protein stability index (ubr1∆): 3.17 ± 0.077

VGEKLVVVVLEEPSASI [SIR3]
protein stability index (doa10∆): 3.07 ± 0.076 | protein stability index (pdr5∆): 2.94 ± 0.087 | protein stability index (san1∆): 3.2 ± 0.052 | protein stability index (ubr1∆): 3.1 ± 0.13

VGGKSTVQNEILGDLGK [FAS2]
protein stability index (doa10∆): 3.02 ± 0.075 | protein stability index (pdr5∆): 2.92 ± 0.1 | protein stability index (san1∆): 2.18 ± 0.1 | protein stability index (ubr1∆): 3.25 ± 0.11

VGGQFSKVQFDAKTSYP [REC8]
protein stability index (doa10∆): 3.19 ± 0.095 | protein stability index (pdr5∆): 3.17 ± 0.094 | protein stability index (san1∆): 3 ± 0.077 | protein stability index (ubr1∆): 3.19 ± 0.055

VGKLFRVGVVSILEAGD [RPL30]
protein stability index (doa10∆): 1.99 ± 0.097 | protein stability index (pdr5∆): 1.36 ± 0.093 | protein stability index (san1∆): 1.58 ± 0.17 | protein stability index (ubr1∆): 1.67 ± 0.081
